Measurements from IntAct's records for PubMed 16488394.

B1: Actin nucleation-promoting factor WAS (Homo sapiens), P42768 (parent)
chain: MSGGPMGGRPGGRGAPAVQQNIPSTLLQDHENQRLFEMLGRKCLTLATAVVQLYLALPPGAEHWTKEHCGAVCFVKDNPQKSYFIRLYGLQAGRLLWEQELYSQLVYSTPTPFFHTFAGDDCQAGLNFADEDEAQAFRALVQEKIQKRNQRQSGDRRQLPPPPTPANEERRGGLPPLPLHPGGDQGGPPVGPLSLGLATVDIQNPDITSSRYRGLPAPGPSPADKKRSGKKKISKADIGAPSGFKHVSHVGWDPQNGFDVNNLDPDLRSLFSRAGISEAQLTDAETSKLIYDFIEDQGGLEAVRQEMRRQEPLPPPPPPSRGGNQLPRPPIVGGNKGRSGPLPPVPLGIAPPPPTPRGPPPPGRGGPPPPPPPATGRSGPLPPPPPGAGGPPMPPPPPPPPPPPSSGNGPAPPPLPPALVPAGGLAPGGGRGALLDQIRQGIQLNKTPGAPESSALQPPPQSSEGLVGALMHVMQKRSRAIHSSDEGEDQAGDEDEDDEWDD

Variants of: B1
Conditions: with wipf1_human WIPF1, O43516
Sequence of wipf1_human WIPF1, O43516 (O43516 whole entry): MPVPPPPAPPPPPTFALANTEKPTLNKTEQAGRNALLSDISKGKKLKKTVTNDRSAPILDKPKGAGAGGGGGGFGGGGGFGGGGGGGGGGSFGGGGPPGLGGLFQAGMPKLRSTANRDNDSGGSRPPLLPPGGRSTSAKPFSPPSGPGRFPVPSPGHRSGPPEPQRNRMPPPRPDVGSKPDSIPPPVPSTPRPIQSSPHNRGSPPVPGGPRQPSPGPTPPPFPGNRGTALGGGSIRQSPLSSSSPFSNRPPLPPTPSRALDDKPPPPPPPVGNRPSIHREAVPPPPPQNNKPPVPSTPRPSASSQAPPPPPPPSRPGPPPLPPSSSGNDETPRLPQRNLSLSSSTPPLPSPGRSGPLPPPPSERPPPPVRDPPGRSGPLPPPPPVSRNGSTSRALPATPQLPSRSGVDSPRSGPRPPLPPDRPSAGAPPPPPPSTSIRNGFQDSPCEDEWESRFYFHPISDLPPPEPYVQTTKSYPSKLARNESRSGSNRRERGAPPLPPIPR

effect of a mutation on the interaction | Variant
decreasing interaction | MSGGPMGGRPGGRGAPAVQQNIPSTLLQDHENQRLFEMLGRKCLTLATAVVQLYLALPPGAEHWTKEHCGAVCFVKDNPQKSYFIRLYGLQAGRLLWEQELYSQLVYSTPTPFFHTFAGDDCQAGLNFADEDETQAFRALVQEKIQKRNQRQSGDRRQLPPPPTPANEERRGGLPPLPLHPGGDQGGPPVGPLSLGLATVDIQNPDITSSRYRGLPAPGPSPADKKRSGKKKISKADIGAPSGFKHVSHVGWDPQNGFDVNNLDPDLRSLFSRAGISEAQLTDAETSKLIYDFIEDQGGLEAVRQEMRRQEPLPPPPPPSRGGNQLPRPPIVGGNKGRSGPLPPVPLGIAPPPPTPRGPPPPGRGGPPPPPPPATGRSGPLPPPPPGAGGPPMPPPPPPPPPPPSSGNGPAPPPLPPALVPAGGLAPGGGRGALLDQIRQGIQLNKTPGAPESSALQPPPQSSEGLVGALMHVMQKRSRAIHSSDEGEDQAGDEDEDDEWDD [A134T]
